Five molecules from article PMC7144582 can be followed below.

The target in assay [1] is CHIKV nsP3 hypervariable domain (HVD), aa 325-523, with C-terminal Twin-Strep-tag (chikungunya virus (CHIKV) strain 181-25). Put plainly: NMR titration.
Assay [2] has as its target nsP3 Site 1 (Chikungunya virus), Q8JUX6. Put plainly: NMR.

As for CD2AP SH3-A domain (domain or fragment), in assay [1], the apparent KD, Site 2 is 137 µM.

Regarding CD2AP SH3-B domain (domain or fragment), in assay [1], the KD, Site 1 was 4.5 µM and the apparent KD, Site 2 came out at 75.7 µM.

Take CD2AP SH3-C domain (domain or fragment): the apparent KD, Site 2 in assay [1] came out at 154 µM.

B1: CD2AP SH3-B, Q9Y5K6 (protein)
chain: TKKRQCKVLFEYIPQNEDELELKVGDIIDINEEVEEGWWSGTLNNKLGLFPSNFVKELEV
A word on the Kd: it is the constant that tells how readily two partners part at equilibrium. In turn, B1 displayed a Kd in assay [2] of 4.5 µM.

B2: CD2AP SH3-C, Q9Y5K6 (protein)
chain: KAKEYCRTLFAYEGTNEDELTFKEGEIIHLISKETGEAGWWRGELNGKEGVFPDNFAVQINE
In turn, B2 came in with a dissociation constant (Kd) in assay [2] of 51.7 µM.
